The values below come from patent US20070031912A1 (RIKEN, published 2007).

One assay concerns the target T1, mKO-FM14-C.
T1 construct: Fragment without linker and leucine zipper, made by in vitro translation; also called C-terminal fragment from 169th to 218th of mKO-FM14; negative control without leucine zipper
T1 chain: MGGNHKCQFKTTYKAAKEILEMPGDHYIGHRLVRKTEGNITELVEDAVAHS
Put plainly: split fluorescent protein complementation in vitro, 20 µl of each in vitro translated fragment in PBS at 37° C., fluorescence after 3, 5 and 7 hours. How it is done:
(§1) 20 μl of each mKO-FM14-N-LZA and mKO-FM14-C-LZB which was synthesized by in vitro translation was added to 1000 μl of PBS and the total volume was made up to 1040 μl. The mixture was left standing at 37° C. and the fluorescence measurements were carried out every 2 hours (after 3, 5 and 7 hours from the mixing) by a F-2500 (HITACHI). The method of measurement was by the double wavelength excitation and a single wavelength measurement (excitation spectra at 580 nm, green component and orange component were set at 500 nm and 548 nm, respectively) or by the double wavelength excitation and double wavelength measurement (green fluorescence at 509 nm by excitation by 470 nm and orange fluorescence at 560 nm by excitation by 520 nm were obtained) (FIG. 2). Also, as negative controls, 20 μl of each mKO-FM14-N and mKO-FM14-C which was synthesized by in vitro translation and to which no proteins for interaction were fused was added to 1000 μl of PBS and the total volume was made up to 1040 μl. The mixture was left standing at 37° C. and the fluorescence measurements were carried out every 2 hours (after 3, 5 and 7 hours from the mixing) by a F-2500 (HITACHI).

In assay [1] the target is T2, mKO-FM14-C-LZB.
T2 construct: Made by in vitro translation; also called fusion of the C-terminal fragment (169th-218th) of mKO-FM14 with leucine zipper basic (LZB)
T2 chain: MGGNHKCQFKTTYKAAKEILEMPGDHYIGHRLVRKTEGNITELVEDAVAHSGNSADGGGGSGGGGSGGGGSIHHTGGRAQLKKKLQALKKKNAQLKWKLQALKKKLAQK
In words: split fluorescent protein complementation in vitro, in vitro translated proteins mixed in PBS at 37° C., fluorescence after 3, 5 and 7 hours. How it is done: as §1

For assay [2], the target named is T2, mKO-FM14-C-LZB. In words: split fluorescent protein complementation in vitro, fluorescence from 1 to 12 hours after mixing. How it is done:
as §1, with “The mixture was left standing at 37° C. and the fluorescence measurements were carried out every 2 hours (after 3, 5 and 7 hours from the mixing) by a F-2500 (HITACHI).” left out
By substituting the 70th proline (P) of mKO with various amino acids, variants were obtained in which the ratio of green fluorescence and orange fluorescence was changed according to the passage of time. The variant in which 70th proline (P) was substituted with alanine (A), serine (S), cysteine (C), threonine (T), and valine (V) was designated as mKO-FM5, mKO-FM3, mKO-FM20, mKO-FM24 and mKO-FM14, respectively. Each variant was similarly split into two molecules and similarly fused with LZA and LZB to carry out analyses.

B1: mKO-FM14-N (other)
chain: MVSVIKPEMKMRYYMDGSVNGHEFTIEGEGTGRPYEGHQEMTLRVTMAEGGPMPFAFDLVSHVFCYGHRVFTKYPEEIPDYFKQAFPEGLSWERSLEFEDGGSASVSAHISLRGNTFYHKSKFTGVNFPADGPIMQNQSVDWEPSTEKITASDGVLKGDVTMYLKLEG
notes: Fragment without linker and leucine zipper, made by in vitro translation; also called N-terminal fragment from the 1st to the 168th of mKO-FM14; negative control without leucine zipper
As for B1, the binding result with mKO-FM14-C was “no binding”.

B2: mKO-FM14-N-LZA (other)
chain: MVSVIKPEMKMRYYMDGSVNGHEFTIEGEGTGRPYEGHQEMTLRVTMAEGGPMPFAFDLVSHVFCYGHRVFTKYPEEIPDYFKQAFPEGLSWERSLEFEDGGSASVSAHISLRGNTFYHKSKFTGVNFPADGPIMQNQSVDWEPSTEKITASDGVLKGDVTMYLKLEGGNSADGGGGSGGGGSGGGGSIHHTGGRAQLEKELQALEKENAQLEWELQALEKELAQK
notes: Made by in vitro translation; also called fusion of the N-terminal fragment (1st-168th) of mKO-FM14 with leucine zipper acidic (LZA)
Turning to B2, in the assay with mKO-FM14-C-LZB [1], the binding result is on record as “binds”.

B3: mKO-FM24-N-LZA (other)
chain: MVSVIKPEMKMRYYMDGSVNGHEFTIEGEGTGRPYEGHQEMTLRVTMAEGGPMPFAFDLVSHVFCYGHRTFTKYPEEIPDYFKQAFPEGLSWERSLEFEDGGSASVSAHISLRGNTFYHKSKFTGVNFPADGPIMQNQSVDWEPSTEKITASDGVLKGDVTMYLKLEGGNSADGGGGSGGGGSGGGGSIHHTGGRAQLEKELQALEKENAQLEWELQALEKELAQK
notes: N-terminal fragment (1-168) of mKO-FM24 (threonine at position 70) fused with LZA
Consider B3, for which, in the assay with mKO-FM14-C-LZB [2], the binding result was “binds”.

B4: mKO-FM3-N-LZA (other)
chain: MVSVIKPEMKMRYYMDGSVNGHEFTIEGEGTGRPYEGHQEMTLRVTMAEGGPMPFAFDLVSHVFCYGHRSFTKYPEEIPDYFKQAFPEGLSWERSLEFEDGGSASVSAHISLRGNTFYHKSKFTGVNFPADGPIMQNQSVDWEPSTEKITASDGVLKGDVTMYLKLEGGNSADGGGGSGGGGSGGGGSIHHTGGRAQLEKELQALEKENAQLEWELQALEKELAQK
notes: N-terminal fragment (1-168) of mKO-FM3 (serine at position 70) fused with LZA
With B4, in the assay with mKO-FM14-C-LZB [2], the binding result was “binds”.

B5: mKO-FM20-N-LZA (other)
chain: MVSVIKPEMKMRYYMDGSVNGHEFTIEGEGTGRPYEGHQEMTLRVTMAEGGPMPFAFDLVSHVFCYGHRCFTKYPEEIPDYFKQAFPEGLSWERSLEFEDGGSASVSAHISLRGNTFYHKSKFTGVNFPADGPIMQNQSVDWEPSTEKITASDGVLKGDVTMYLKLEGGNSADGGGGSGGGGSGGGGSIHHTGGRAQLEKELQALEKENAQLEWELQALEKELAQK
notes: N-terminal fragment (1-168) of mKO-FM20 (cysteine at position 70) fused with LZA
For the molecule B5, the binding result with mKO-FM14-C-LZB [2] is given as “binds”.

B6: mKO-FM5-N-LZA (other)
chain: MVSVIKPEMKMRYYMDGSVNGHEFTIEGEGTGRPYEGHQEMTLRVTMAEGGPMPFAFDLVSHVFCYGHRAFTKYPEEIPDYFKQAFPEGLSWERSLEFEDGGSASVSAHISLRGNTFYHKSKFTGVNFPADGPIMQNQSVDWEPSTEKITASDGVLKGDVTMYLKLEGGNSADGGGGSGGGGSGGGGSIHHTGGRAQLEKELQALEKENAQLEWELQALEKELAQK
notes: N-terminal fragment (1-168) of mKO-FM5 (alanine at position 70) fused with LZA
On to B6, for which, in the assay with mKO-FM14-C-LZB [2], the binding result is reported as “binds”.
